Substrate in the data set: CC(=O)Oc1ccc([N+](=O)[O-])cc1
The data set can be described thus: colorimetric esterase assay, Lineweaver-Burk plot. The conditions noted are these: 15 mM Tris/SO4 pH 7.4, 22 °C, 0.25-3 mM substrate, apparent Km. The data set is classed as biochemical, Sycon raphanus.

B1: recombinant carbonic anhydrase (CA) from S. raphanus (Sycon raphanus) (protein)
chain: ASWSYNYGAANGPNNWGMLPGFSTCGNGTKQTPIDIVRASATRQTYPTLSFSGATNETDWTIQNNGHSVAALPTADIWLSGGPLGSKVYKVYNIHIHFGNSSFRASEHSFDGGQRTTGEFHVVTYDRTFSNIGEAVASNRGDALSVFGVLFQAQTGQTYDAGITSLINMAANLTYAGDDYVDGLDFSTMVSALDLQQYYSYMGSLTTPGCAEVVSWIVANRLHYVSPAAIDQLMSLKAGMSATPGIDLQGNTRPLQALNGRTVSRSFDLSGS
notes: carbonic anhydrase domain, lacking signal peptide and transmembrane region; expressed in E. coli, Ni-NTA purified
The term Km denotes the concentration of substrate that gives half-maximal velocity. For B1, the Km turned out to be 6.2 ± 1.0 mM.

The values above are taken from PMC3821024, “The enzyme carbonic anhydrase as an integral component of biogenic Ca-carbonate formation in sponge spicules^” (FEBS Open Bio, 2013).
